Experimental data: paper PMC4624675 (2015)

B1: GST-tagged ICP0 (613–633), wild type (peptide)
chain: SGPRGPRKCARKTRHAETSGA
B2: UHRF1 (642–674) (GST pull-down bait) (peptide)
chain: TGKGKWKRKSAGGGPSRAGSPRRTSKKTKVEPY
B3: KG-Linker of DNMT1 (GST pull-down bait) (peptide)
chain: KGKGKGKGKGKP

Target: C-terminal Tandem UBL domain of human USP7 (TUD^USP7), wild type (human)
Test: ITC

Sequence of C-terminal Tandem UBL domain of human USP7 (TUD^USP7), wild type (human) (chain, as listed by the source): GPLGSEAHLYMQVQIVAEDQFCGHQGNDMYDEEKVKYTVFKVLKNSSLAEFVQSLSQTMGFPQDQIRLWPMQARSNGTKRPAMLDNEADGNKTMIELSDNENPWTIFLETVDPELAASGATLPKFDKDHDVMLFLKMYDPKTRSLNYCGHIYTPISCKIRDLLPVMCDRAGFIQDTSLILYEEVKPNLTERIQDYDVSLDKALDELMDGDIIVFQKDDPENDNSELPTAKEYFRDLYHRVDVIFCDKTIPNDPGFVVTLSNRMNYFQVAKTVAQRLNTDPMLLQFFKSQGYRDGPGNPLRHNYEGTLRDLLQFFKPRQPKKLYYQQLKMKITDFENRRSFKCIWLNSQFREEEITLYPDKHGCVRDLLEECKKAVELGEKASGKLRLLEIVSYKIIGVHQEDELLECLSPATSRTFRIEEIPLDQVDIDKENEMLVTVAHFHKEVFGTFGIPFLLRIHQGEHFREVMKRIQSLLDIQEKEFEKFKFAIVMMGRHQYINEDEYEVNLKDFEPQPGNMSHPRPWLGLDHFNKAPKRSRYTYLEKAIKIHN

Binder	Kd
B1	0.27 µM
B2	1.54 µM
B3	3.72 µM
